Reference: patent US20050002930A1

Target: α5β1 integrin on CD14+ blood monocytes of the dosed animals
Assay: FACS occupancy on blood monocytes compared with serum levels of M200

serum concentration sufficient to completely saturate monocyte α5β1 integrin binding sites: 60 µg/mL
B1: M200 chimeric (mouse/human IgG4) anti-α5β1 integrin antibody (antibody, V domains shown)
VH: QVQLKESGPGLVAPSQSLSITCTISGFSLTDYGVHWVRQPPGKGLEWLVVIWSDGSSTYNSALKSRMTIRKDNSKSQVFLIMNSLQTDDSAMYYCARHGTYYGMTTTGDALDYWGQGTSVTVSS
VL: QIVLTQSPAIMSASLGERVTMTCTASSSVSSNYLHWYQQKPGSAPNLWIYSTSNLASGVPARFSGSGSGTSYSLTISSMEAEDAATYYCHQYLRSPPTFGGGTKLEIKR
